Experimental data published in patent US7049080B2, “Process for detecting serine/threonine kinase activity” (priority 2000, dated 2006).

How the values were obtained:
[1] = molecular target: T1, MKK7 (Homo sapiens, UniProt O14733); assay: FP measurements of MKK7 activity, time course (Example 7); assay type: biochemical; conditions: 100 μM P1°
T1 construct: purchased Upstate Biotech 14-366
T1 sequence (O14733 1-419): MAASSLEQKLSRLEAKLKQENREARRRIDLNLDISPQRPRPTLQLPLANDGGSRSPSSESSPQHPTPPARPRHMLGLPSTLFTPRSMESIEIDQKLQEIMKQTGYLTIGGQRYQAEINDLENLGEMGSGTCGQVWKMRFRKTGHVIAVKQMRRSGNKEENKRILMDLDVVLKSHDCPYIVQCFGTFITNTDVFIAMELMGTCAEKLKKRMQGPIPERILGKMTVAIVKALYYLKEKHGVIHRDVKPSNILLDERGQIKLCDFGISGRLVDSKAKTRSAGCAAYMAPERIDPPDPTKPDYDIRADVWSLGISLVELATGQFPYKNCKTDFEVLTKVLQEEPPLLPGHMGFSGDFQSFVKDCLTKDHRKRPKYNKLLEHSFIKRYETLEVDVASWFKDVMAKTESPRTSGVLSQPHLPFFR
Method: Fluorescence Polarization measurements of MKK7 activity (time course): In this experiment, the time course has been investigated at P1^∘ substrate concentrations of 100 μM. The reactions were stopped with EDTA. The following reagents have been used (the compositions of the buffers and specifications of the reagents are explained in more detail later on): […] After addition of MKK7, the enzyme reactions were performed in Nunc chambers at RT. The samples were continuously measured at different time points by Fluorescence polarization.

[2] = molecular target: T1, MKK7; assay: FP measurements of MKK7 activity, time course, optimized conditions (Example 8); assay type: biochemical
Method: Fluorescence Polarization measurements of MKK7 activity (time course): In this experiment the assay conditions have been optimized. The reactions were stopped with EDTA. […] The following reagents have been used (explanations later on): […] The enzyme reactions were performed in Eppendorf reaction tubes at RT. Aliquots of 20 μl were withdrawn from the reactions at different time points and mixed with 10 μl STOP solution.

[3] = molecular target: T1, MKK7; conditions: when max. activated; cited from earlier work

Fluorescence Polarization ([1]; MKK7 0.005 μM, 0 h): 131.5 mP | Fluorescence Polarization ([1]; MKK7 0.005 μM, 0.5 h): 137.4 mP | Fluorescence Polarization ([1]; MKK7 0.005 μM, 1 h): 136.8 mP | Fluorescence Polarization ([1]; MKK7 0.005 μM, 1.5 h): 136.9 mP | Fluorescence Polarization ([1]; MKK7 0.005 μM, 3 h): 138.1 mP | Fluorescence Polarization ([1]; MKK7 0.02 μM, 0 h): 135.4 mP | Fluorescence Polarization ([1]; MKK7 0.02 μM, 0.5 h): 140.3 mP | Fluorescence Polarization ([1]; MKK7 0.02 μM, 1 h): 140.9 mP | Fluorescence Polarization ([1]; MKK7 0.02 μM, 1.5 h): 139.7 mP | Fluorescence Polarization ([1]; MKK7 0.02 μM, 3 h): 140.0 mP | Fluorescence Polarization ([1]; MKK7 0.08 μM, 0 h): 133.5 mP | Fluorescence Polarization ([1]; MKK7 0.08 μM, 0.5 h): 137.6 mP | Fluorescence Polarization ([1]; MKK7 0.08 μM, 1 h): 135.8 mP | Fluorescence Polarization ([1]; MKK7 0.08 μM, 1.5 h): 128.4 mP | Fluorescence Polarization ([1]; MKK7 0.08 μM, 3 h): 115.2 mP | Fluorescence Polarization ([1]; MKK7 0.2 μM, 0 h): 135.3 mP | Fluorescence Polarization ([1]; MKK7 0.2 μM, 0.5 h): 132.1 mP | Fluorescence Polarization ([1]; MKK7 0.2 μM, 1 h): 121.9 mP | Fluorescence Polarization ([1]; MKK7 0.2 μM, 1.5 h): 113.8 mP | Fluorescence Polarization ([1]; MKK7 0.2 μM, 3 h): 104.7 mP | Fluorescence Polarization ([1]; MKK7 0.5 μM, 0 h): 135.3 mP | Fluorescence Polarization ([1]; MKK7 0.5 μM, 0.5 h): 125.5 mP | Fluorescence Polarization ([1]; MKK7 0.5 μM, 1 h): 115.3 mP | Fluorescence Polarization ([1]; MKK7 0.5 μM, 1.5 h): 108.8 mP | Fluorescence Polarization ([1]; MKK7 0.5 μM, 3 h): 106.6 mP | Fluorescence Polarization ([1]; MKK7 1.0 μM, 0 h): 135.7 mP | Fluorescence Polarization ([1]; MKK7 1.0 μM, 0.5 h): 119.6 mP | Fluorescence Polarization ([1]; MKK7 1.0 μM, 1 h): 112.2 mP | Fluorescence Polarization ([1]; MKK7 1.0 μM, 1.5 h): 105.3 mP | Fluorescence Polarization ([1]; MKK7 1.0 μM, 3 h): 108.4 mP | Fluorescence Polarization ([2]; NEB ab in STOP sol., MKK7 0.04 μM, 0 h): 147.2 mP | Fluorescence Polarization ([2]; NEB ab in STOP sol., MKK7 0.04 μM, 0.5 h): 141.5 mP | Fluorescence Polarization ([2]; NEB ab in STOP sol., MKK7 0.04 μM, 1 h): 140.2 mP | Fluorescence Polarization ([2]; NEB ab in STOP sol., MKK7 0.04 μM, 1.5 h): 135.8 mP | Fluorescence Polarization ([2]; NEB ab in STOP sol., MKK7 0.04 μM, 2 h): 134.2 mP | Fluorescence Polarization ([2]; NEB ab in STOP sol., MKK7 0.04 μM, 3 h): 138.2 mP | Fluorescence Polarization ([2]; NEB ab in STOP sol., MKK7 0.08 μM, 0 h): 143.3 mP | Fluorescence Polarization ([2]; NEB ab in STOP sol., MKK7 0.08 μM, 0.5 h): 139.1 mP | Fluorescence Polarization ([2]; NEB ab in STOP sol., MKK7 0.08 μM, 1 h): 133.6 mP | Fluorescence Polarization ([2]; NEB ab in STOP sol., MKK7 0.08 μM, 1.5 h): 122.1 mP | Fluorescence Polarization ([2]; NEB ab in STOP sol., MKK7 0.08 μM, 2 h): 115.8 mP | Fluorescence Polarization ([2]; NEB ab in STOP sol., MKK7 0.08 μM, 3 h): 125.0 mP | Fluorescence Polarization ([2]; NEB ab in STOP sol., MKK7 0.2 μM, 0 h): 148.2 mP | Fluorescence Polarization ([2]; NEB ab in STOP sol., MKK7 0.2 μM, 0.5 h): 130.2 mP | Fluorescence Polarization ([2]; NEB ab in STOP sol., MKK7 0.2 μM, 1 h): 114.0 mP | Fluorescence Polarization ([2]; NEB ab in STOP sol., MKK7 0.2 μM, 1.5 h): 102.8 mP | Fluorescence Polarization ([2]; NEB ab in STOP sol., MKK7 0.2 μM, 2 h): 99.2 mP | Fluorescence Polarization ([2]; NEB ab in STOP sol., MKK7 0.2 μM, 3 h): 119.4 mP | Fluorescence Polarization ([2]; NEB ab in reaction, MKK7 0.04 μM, 0 h): 150.0 mP | Fluorescence Polarization ([2]; NEB ab in reaction, MKK7 0.04 μM, 0.5 h): 128.5 mP | Fluorescence Polarization ([2]; NEB ab in reaction, MKK7 0.04 μM, 1 h): 125.7 mP | Fluorescence Polarization ([2]; NEB ab in reaction, MKK7 0.04 μM, 1.5 h): 112.9 mP | Fluorescence Polarization ([2]; NEB ab in reaction, MKK7 0.04 μM, 2 h): 109.7 mP | Fluorescence Polarization ([2]; NEB ab in reaction, MKK7 0.04 μM, 3 h): 78.6 mP | Fluorescence Polarization ([2]; NEB ab in reaction, MKK7 0.08 μM, 0 h): 138.5 mP | Fluorescence Polarization ([2]; NEB ab in reaction, MKK7 0.08 μM, 0.5 h): 122.5 mP | Fluorescence Polarization ([2]; NEB ab in reaction, MKK7 0.08 μM, 1 h): 105.9 mP | Fluorescence Polarization ([2]; NEB ab in reaction, MKK7 0.08 μM, 1.5 h): 86.4 mP | Fluorescence Polarization ([2]; NEB ab in reaction, MKK7 0.08 μM, 2 h): 84.5 mP | Fluorescence Polarization ([2]; NEB ab in reaction, MKK7 0.08 μM, 3 h): 65.0 mP | Fluorescence Polarization ([2]; NEB ab in reaction, MKK7 0.2 μM, 0 h): 137.2 mP | Fluorescence Polarization ([2]; NEB ab in reaction, MKK7 0.2 μM, 0.5 h): 101.4 mP | Fluorescence Polarization ([2]; NEB ab in reaction, MKK7 0.2 μM, 1 h): 83.1 mP | Fluorescence Polarization ([2]; NEB ab in reaction, MKK7 0.2 μM, 1.5 h): 78.1 mP | Fluorescence Polarization ([2]; NEB ab in reaction, MKK7 0.2 μM, 2 h): 72.1 mP | Fluorescence Polarization ([2]; NEB ab in reaction, MKK7 0.2 μM, 3 h): 59.4 mP
B1: MKK7: MKK7 kinase, supplier Upstate Biotech cat. no. 14-366 (protein, UniProt O14733 2-419, looked up)
Dual specificity …: AASSLEQKLSRLEAKLKQENREARRRIDLNLDISPQRPRPTLQLPLANDGGSRSPSSESSPQHPTPPARPRHMLGLPSTLFTPRSMESIEIDQKLQEIMKQTGYLTIGGQRYQAEINDLENLGEMGSGTCGQVWKMRFRKTGHVIAVKQMRRSGNKEENKRILMDLDVVLKSHDCPYIVQCFGTFITNTDVFIAMELMGTCAEKLKKRMQGPIPERILGKMTVAIVKALYYLKEKHGVIHRDVKPSNILLDERGQIKLCDFGISGRLVDSKAKTRSAGCAAYMAPERIDPPDPTKPDYDIRADVWSLGISLVELATGQFPYKNCKTDFEVLTKVLQEEPPLLPGHMGFSGDFQSFVKDCLTKDHRKRPKYNKLLEHSFIKRYETLEVDVASWFKDVMAKTESPRTSGVLSQPHLPFFR
Specific activity [3]: Approximately 20 Units/mg
